The chains are these.
B1: CAP-Gly domain-containing linker protein 1 (Homo sapiens), P30622 (parent)
chain: MSMLKPSGLKAPTKILKPGSTALKTPTAVVAPVEKTISSEKASSTPSSETQEEFVDDFRVGERVWVNGNKPGFIQFLGETQFAPGQWAGIVLDEPIGKNDGSVAGVRYFQCEPLKGIFTRPSKLTRKVQAEDEANGLQTTPASRATSPLCTSTASMVSSSPSTPSNIPQKPSQPAAKEPSATPPISNLTKTASESISNLSEAGSIKKGERELKIGDRVLVGGTKAGVVRFLGETDFAKGEWCGVELDEPLGKNDGAVAGTRYFQCQPKYGLFAPVHKVTKIGFPSTTPAKAKANAVRRVMATTSASLKRSPSASSLSSMSSVASSVSSRPSRTGLLTETSSRYARKISGTTALQEALKEKQQHIEQLLAERDLERAEVAKATSHVGEIEQELALARDGHDQHVLELEAKMDQLRTMVEAADREKVELLNQLEEEKRKVEDLQFRVEEESITKGDLEQKSQISEDPENTQTKLEHARIKELEQSLLFEKTKADKLQRELEDTRVATVSEKSRIMELEKDLALRVQEVAELRRRLESNKPAGDVDMSLSLLQEISSLQEKLEVTRTDHQREITSLKEHFGAREETHQKEIKALYTATEKLSKENESLKSKLEHANKENSDVIALWKSKLETAIASHQQAMEELKVSFSKGLGTETAEFAELKTQIEKMRLDYQHEIENLQNQQDSERAAHAKEMEALRAKLMKVIKEKENSLEAIRSKLDKAEDQHLVEMEDTLNKLQEAEIKVKELEVLQAKCNEQTKVIDNFTSQLKATEEKLLDLDALRKASSEGKSEMKKLRQQLEAAEKQIKHLEIEKNAESSKASSITRELQGRELKLTNLQENLSEVSQVKETLEKELQILKEKFAEASEEAVSVQRSMQETVNKLHQKEEQFNMLSSDLEKLRENLADMEAKFREKDEREEQLIKAKEKLENDIAEIMKMSGDNSSQLTKMNDELRLKERDVEELQLKLTKANENASFLQKSIEDMTVKAEQSQQEAAKKHEEEKKELERKLSDLEKKMETSHNQCQELKARYERATSETKTKHEEILQNLQKTLLDTEDKLKGAREENSGLLQELEELRKQADKAKAAQTAEDAMQIMEQMTKEKTETLASLEDTKQTNAKLQNELDTLKENNLKNVEELNKSKELLTVENQKMEEFRKEIETLKQAAAQKSQQLSALQEENVKLAEELGRSRDEVTSHQKLEEERSVLNNQLLEMKKRESKFIKDADEEKASLQKSISITSALLTEKDAELEKLRNEVTVLRGENASAKSLHSVVQTLESDKVKLELKVKNLELQLKENKRQLSSSSGNTDTQADEDERAQESQIDFLNSVIVDLQRKNQDLKMKVEMMSEAALNGNGDDLNNYDSDDQEKQSKKKPRLFCDICDCFDLHDTEDCPTQAQMSEDPPHSTHHGSRGEERPYCEICEMFGHWATNCNDDETF
B2: CAP-Gly domain-containing linker protein 1 (Rattus norvegicus (Rat)), Q9JK25 (parent)
chain: MSMLKPSGLKAPTKILKPGSTALKTPAAAAAPLEKTVPSEKASGPPSSETQEEFVDDFRVGERVWVNGNKPGFIQFLGETQFAPGQWAGIVLDEPIGKNDGSVAGVRYFQCEPLKGIFTRPSKLTRKVQAEDEANGLQTAHARAASPLSTAAATMVSSSPATPSNIPQKPSQPVAKETSATPQISNLTKTASESISNLSEAGSVKKGERELKIGDRVLVGGTKAGVVRFLGETDFAKGEWCGVELDEPLGKNDGAVAGTRYFQCQPKYGLFAPVHKVTKIGFPSTTPAKAKAAAVRRVMATTPASLKRSPSASSLSSMSSVASSVSSKPSRTGLLTETSSRYARKISGTTALQEALKEKQQHIEQLLAERDLERAEVAKATSHVGEIEQELALARDGHDQHVLELEAKMDQLRTMVEAADREKVELLNQLEEEKRKVEDLQFRVEEESITKGDLETQTKLEHARIKELEQSLLFEKTKADKLQRELEDTRVATVSEKSRIMELEKDLALRVQEVAELRRRLESSKPPGDVDMSLSLLQEISALQEKLEVTHTDHQNEVTSLKDHFGTREEMFQKEIKALHAATEKLSKENESLRSKLDHANKENSDVIALWKSKLETAIASHQQAMEELKVSFSKGIGTDSAEFAELKTQIERLRLDYQHEIESLQSKQDSERSAHAKEMESMKAKLMKIIKEKEDSLEAVKARLDTAEDQHLVEMEEMLSKLQEAEIKKEKFASASEEAVSTQTSMQDTVNKLHQKEEQFNMLSSELEKLRENLTDMEAKFKEKDEREDQLVKAKEKLENDIAEIMKMSGDNSSQLTKMNDELRLKERSVEELQLKLTKANENASLLQKSIGEVTLKAEQSQQEAAKKHEEEKKELENKLLELEKKMETSHYQCQDLKAKYEKASSETKIKHEEILQNFQKMLVDTEDKLKAAQEANRDLMQDMEELKSQADKAKAAQTAEDAMQIMEQMTKEKTETLASLEDTKQTNAKLQSELDTLKENNLKTVEELNKSKELLNEENQKMEEFKKEIETLKQAAAQKSQQLSALQEENVKLAEELGRTRDEVTSHQKLEEERSVLNNQLLEMKKSLPSNTLRESEYRKDADEEKASLQKSISLTSALLTEKDAELEKLRNEVTVLRGENASAKSLHSVVQTLESDKVKLELKVKNLELQLKENKRQLSSSSGNTDVQTEEDERAQESQQMIDFLNSVIVDLQRKNQDLKMKVEMMSEAALNGNGEDPNSYDSDDQEKQSKKKPRLFCDICDCFDLHDTEDCPTQAQMSEDPPHSTHHGSRSEERPYCEICEMFGHWATNCNDDETF

The text below walks through data of IntAct's records for PubMed 20664522.

In the first test the parent is B1. Conditions: with csk2b_human CSNK2B.
Target sequence in this assay (P67870 whole entry): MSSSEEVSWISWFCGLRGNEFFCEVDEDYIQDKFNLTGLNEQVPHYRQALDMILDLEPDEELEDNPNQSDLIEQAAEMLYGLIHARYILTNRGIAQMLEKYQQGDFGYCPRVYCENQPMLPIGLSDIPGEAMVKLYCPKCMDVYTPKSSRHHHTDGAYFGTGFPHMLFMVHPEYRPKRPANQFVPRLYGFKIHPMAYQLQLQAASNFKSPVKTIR
For the variant S195A, the “effect of a mutation on the interaction” value was “decreasing interaction”.

Variants of B2 are the subject of another test. Conditions: with dctn1_human DCTN1, Q14203.
Chain of dctn1_human DCTN1, Q14203 (Q14203 whole entry): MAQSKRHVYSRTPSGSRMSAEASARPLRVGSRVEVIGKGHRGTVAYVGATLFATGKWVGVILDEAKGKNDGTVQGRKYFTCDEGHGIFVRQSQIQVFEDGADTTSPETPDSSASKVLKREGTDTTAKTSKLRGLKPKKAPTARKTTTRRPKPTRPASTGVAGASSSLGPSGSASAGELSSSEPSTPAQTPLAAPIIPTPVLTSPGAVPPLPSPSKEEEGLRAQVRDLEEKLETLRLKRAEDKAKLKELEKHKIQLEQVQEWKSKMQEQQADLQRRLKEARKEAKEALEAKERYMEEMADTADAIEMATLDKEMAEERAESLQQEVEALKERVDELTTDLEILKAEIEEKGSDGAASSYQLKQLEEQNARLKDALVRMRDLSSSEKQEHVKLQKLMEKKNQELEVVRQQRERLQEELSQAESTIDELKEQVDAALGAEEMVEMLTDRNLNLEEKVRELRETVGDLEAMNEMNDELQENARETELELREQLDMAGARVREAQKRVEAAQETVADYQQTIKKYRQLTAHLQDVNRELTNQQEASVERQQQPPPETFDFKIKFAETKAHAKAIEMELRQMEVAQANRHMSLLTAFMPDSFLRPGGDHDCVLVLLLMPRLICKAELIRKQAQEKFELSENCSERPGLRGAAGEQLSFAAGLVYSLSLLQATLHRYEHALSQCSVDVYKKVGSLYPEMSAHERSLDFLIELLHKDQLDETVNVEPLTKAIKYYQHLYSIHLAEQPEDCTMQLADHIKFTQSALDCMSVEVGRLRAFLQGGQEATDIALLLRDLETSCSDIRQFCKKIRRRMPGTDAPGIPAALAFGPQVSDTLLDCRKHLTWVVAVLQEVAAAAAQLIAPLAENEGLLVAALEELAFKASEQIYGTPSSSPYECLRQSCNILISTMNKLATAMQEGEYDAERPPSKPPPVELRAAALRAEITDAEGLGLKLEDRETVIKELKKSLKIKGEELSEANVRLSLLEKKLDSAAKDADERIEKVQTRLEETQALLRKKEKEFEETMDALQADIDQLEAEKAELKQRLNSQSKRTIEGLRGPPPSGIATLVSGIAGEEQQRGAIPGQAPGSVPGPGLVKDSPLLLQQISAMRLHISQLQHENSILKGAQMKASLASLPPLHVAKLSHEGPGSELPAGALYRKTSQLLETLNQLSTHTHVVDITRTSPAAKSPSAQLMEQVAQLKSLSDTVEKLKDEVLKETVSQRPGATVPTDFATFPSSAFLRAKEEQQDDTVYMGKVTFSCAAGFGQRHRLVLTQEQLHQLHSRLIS
On to S1246A, for which the “effect of a mutation on the interaction” value is on record as “decreasing interaction”.

In a further test the parent is B2. Conditions: with csk2b_human CSNK2B.
Target sequence in this assay (P67870 whole entry): as the sequence (P67870 whole entry) above
On to S194E, for which the “effect of a mutation on the interaction” value was “increasing interaction”.

Variants of B2 are the subject of a further test. Conditions: with dctn1_human DCTN1, Q14203. This is another data set of the same source.
In the case of S194A, the “effect of a mutation on the interaction” value is recorded as “disrupting interaction”.
